In patent US20180105585A1 (published 2018):

Key:
[1] = target: T1, Biotinylated human Amyloid beta 1-42 peptide (human, N-terminal biotin); assay: SPR (ProteOn), biotinylated peptide on streptavidin chip, scFv as analyte
T1 construct: Synthetic peptide (rPeptide A1117 or Bachem H-5642); range counted on Amyloid beta; also called N-terminal biotin Abeta 1-42; synthetic biotinylated human Amyloid beta 1-42 peptide

[2] = target: T1, Biotinylated human Amyloid beta 1-42 …; assay: HTRF epitope competition, purified scFv against Abet0144-GL IgG1-TM (competitor) for biotinylated human Amyloid beta 1-42
[3] = target: T2, Amyloid beta plaques in Tg2576 mouse brain sections (human (transgene in mouse), UniProt P05067 672-713, limits assumed); assay: in vitro immunohistochemistry, core plaques
T2 construct: domain: Amyloid beta; The two APP mutations lie before the first residue of Amyloid beta; also called native Amyloid beta; Tg2576 brain sections

[4] = target: T3, Amyloid beta plaques in human Alzheimer's Disease brain sections (human, UniProt P05067 672-713, limits assumed); assay: in vitro immunohistochemistry, core plaques
T3 construct: domain: Amyloid beta; Paraffin sections treated with formic acid; aggregated native peptide of mixed length; also called native Amyloid beta; human AD brain sections
T3 sequence (P05067 672-713 limits assumed): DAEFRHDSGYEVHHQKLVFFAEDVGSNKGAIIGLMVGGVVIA

T1 sequence (peptide, as listed by the source): as the sequence (P05067 672-713 limits assumed) above
T2 sequence (P05067 672-713 limits assumed): as above

Row | Binder | Kd [1] [nM] | koff [1] [s⁻¹] | kon [1] [M⁻¹ s⁻¹] | IC50 [2] [nM] | plaque staining score [3] | plaque staining score [4]
1 | Abet0328 scFv (scFv, V domains shown) VH: EVQLLESGGGLVQPGGSLRLSCAASSDAFKTDTMWWVRQAPRKGLEWVSVIGAHTNNSAYADSVKGRFTISRDNSKNTLYLQMNSLRAEDTAVYYCAREWMDRSRPYYYYGMDVWGQGTLVTVSS VL: SYELTQPPSVSVSPGQTVSITCSGRNLEDKFASWYQQKPGQSPVLVIYRDDKRPSGVPERFSASNSGHTATLTISGTQATDEADYYCSSQDTVTRVFGGGTKLTVL | 0.729 | 0.000103 | 141000 | 0.55 | – | –
2 | Abet0380-GL IgG1-TM (antibody, V domains shown, Whole human IgG1 with the triple mutation L234F/L235E/P331S (TM) and human lambda light chain constant domain; also called Abet0380-GL (germlined) IgG1-TM) VH: EVQLLESGGGLVQPGGSLRLSCAASMGNFNYQTMWWVRQAPGKGLEWVSVIGKTNENIAYADSVKGRFTISRDNSKNTLYLQMNSLRAEDTAVYYCAREWMDHSRPYYYYGMDVWGQGTLVTVSS VL: SYELTQPPSVSVSPGQTASITCSGHNLEDKFASWYQQKPGQSPVLVIYRDDKRPSGIPERFSASNSGHTATLTISGTQAMDEADYYCSSQDTVTRVFGGGTKLTVL | – | – | – | – | 4 score (0-4) | 3 score (0-4)
3 | Abet0144-GL IgG1-TM (antibody, V domains shown, Whole human IgG1 with the triple mutation L234F/L235E/P331S (TM) and human lambda light chain constant domain; also called Abet0144-GL (germlined) IgG1-TM) VH: EVQLLESGGGLVQPGGSLRLSCAASGFTFSVYTMWWVRQAPGKGLEWVSVIGSSGGTTVYADSVKGRFTISRDNSKNTLYLQMNSLRAEDTAVYYCAREWMDHSRPYYYYGMDVWGQGTLVTVSS VL: SYELTQPPSVSVSPGQTASITCSGHNLEDKFASWYQQKPGQSPVLVIYRDDKRPSGIPERFSASNSGHTATLTISGTQAMDEADYYCQAQDSTTRVFGGGTKLTVL | – | – | – | – | 1 score (0-4) | 1.5 score (0-4)
